Laboratory results published in patent publication US20240287204A1 (published 2024).

Target: T1, human MerTK on cells (human, UniProt Q12866 21-999)
T1 sequence: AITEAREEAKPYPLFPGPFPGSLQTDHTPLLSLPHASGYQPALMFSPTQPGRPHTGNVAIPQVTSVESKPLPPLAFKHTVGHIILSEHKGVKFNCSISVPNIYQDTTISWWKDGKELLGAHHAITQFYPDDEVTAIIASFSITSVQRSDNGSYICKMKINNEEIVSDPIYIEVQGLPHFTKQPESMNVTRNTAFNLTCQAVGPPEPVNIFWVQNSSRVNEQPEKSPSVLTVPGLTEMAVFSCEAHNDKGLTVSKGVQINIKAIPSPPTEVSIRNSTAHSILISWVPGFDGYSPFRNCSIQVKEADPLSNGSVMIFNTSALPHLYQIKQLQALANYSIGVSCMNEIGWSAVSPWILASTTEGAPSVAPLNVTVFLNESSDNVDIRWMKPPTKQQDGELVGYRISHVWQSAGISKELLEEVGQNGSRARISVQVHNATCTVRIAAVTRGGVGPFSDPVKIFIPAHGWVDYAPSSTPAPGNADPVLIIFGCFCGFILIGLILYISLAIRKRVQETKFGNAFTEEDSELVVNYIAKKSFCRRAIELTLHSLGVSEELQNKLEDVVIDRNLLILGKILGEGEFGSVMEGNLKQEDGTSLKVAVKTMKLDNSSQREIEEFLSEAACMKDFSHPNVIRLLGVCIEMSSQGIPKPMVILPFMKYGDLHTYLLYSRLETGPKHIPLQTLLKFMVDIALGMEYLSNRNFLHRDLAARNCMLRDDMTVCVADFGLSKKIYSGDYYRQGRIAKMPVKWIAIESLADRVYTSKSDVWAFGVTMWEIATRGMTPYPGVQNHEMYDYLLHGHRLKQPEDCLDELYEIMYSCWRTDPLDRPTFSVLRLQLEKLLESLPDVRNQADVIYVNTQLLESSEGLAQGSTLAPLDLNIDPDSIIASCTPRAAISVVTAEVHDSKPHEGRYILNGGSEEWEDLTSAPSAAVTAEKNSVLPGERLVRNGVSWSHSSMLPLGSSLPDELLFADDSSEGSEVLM
Experiment: cell-based or functional assay

IC50 of blocking of Gas6-mediated pAKT activity in human M2c macrophages (HTRF): 0.531 nM
B1: MTK-22 (antibody, human IgG1, V domains shown)
VH: QVQLQQPGADLVEPGASVKLSCKASGYTFTSYWMHWVKQRPGQGLEWIGEIDPSDSSSNYNQKFKGKATLTVDKSSSTAYMHLNSLTSEDSAVYYCARRYYYGSLYFDNWGQGTTLTVSS
VL: DVVMTQSHKFMSTSVGDRVSITCKASQDVGTAIAWYQQKPGQSPKLLIYWASTRHTGVPDRFTGSRSGTVFTLTISNVQSEDLADYFCQQYTSYPLTFGSGTKLEIK
